From the Human Domainome abundance scans (Beltran et al. 2025)
± gives the uncertainty stated by the source.

B1: POU domain, class 3, transcription factor 4, residues 280 to 335; numbered along this chain, P49335 (parent)
chain: KKRTSIEVSVKGVLETHFLKCPKPAAQEISSLADSLQLEKEVVRVWFCNRRQKEKR
B2: Tesmin, residues 368 to 403; numbered along this chain, Q9Y4I5 (parent)
chain: KGCNCRRSGCLKNYCECYEAQIMCSSICKCIGCKNY

Variants of: B1
Assay: abundance fitness (aPCA) (normalised: wild type 0, dead -1); higher = more abundant; growth selection in yeast, the domain comes from the species named
Conditions: Homo sapiens

| Variant | abundance fitness |
| --- | --- |
| T4A | -0.145 ± 0.16 |
| T4L | -0.021 ± 0.11 |
| T4S | 0.213 ± 0.13 |
| T4M | 0.108 ± 0.14 |
| T4G | -0.189 ± 0.12 |
| T4I | 0.067 ± 0.3 |
| T4F | -0.26 ± 0.25 |
| T4D | 0.34 ± 0.19 |
| T4H | -0.925 ± 0.36 |
| T4P | -0.178 ± 0.15 |
| T4Y | -0.248 ± 0.22 |
| T4C | -0.249 ± 0.18 |
| T4E | 0.034 ± 0.24 |
| T4K | 0.011 ± 0.17 |
| T4W | -0.486 ± 0.17 |
| T4R | -0.419 ± 0.11 |
| K1S | -0.132 ± 0.24 |
| K1G | -0.243 ± 0.4 |
| K1W | 0.033 ± 0.42 |
| K1D | -0.185 ± 0.49 |
| K1R | -0.312 ± 0.2 |
| K1E | -0.049 ± 0.3 |

| Variant | abundance fitness |
| --- | --- |
| K1M | -0.03 ± 0.27 |
| V8C | -0.326 ± 0.23 |
| V8M | 0.527 ± 0.22 |
| V8G | 0.49 ± 0.11 |
| V8Q | 0.405 ± 0.2 |
| V8W | -0.045 ± 0.16 |
| V8D | 0.006 ± 0.31 |
| V8S | 0.546 ± 0.14 |
| V8I | 0.04 ± 0.14 |
| V8K | 0.842 ± 0.22 |
| V8N | 1.06 ± 0.44 |
| V8P | 0.736 ± 0.24 |
| V8A | 0.354 ± 0.14 |
| V8R | 0.362 ± 0.12 |
| V8Y | 0.231 ± 0.4 |
| V8E | 0.623 ± 0.14 |
| V8T | 0.307 ± 0.21 |
| V8L | 0.293 ± 0.12 |
| V8H | 0.07 ± 0.28 |
| E7M | -0.191 ± 0.17 |
| E7Y | -0.285 ± 0.099 |
| E7P | 0.607 ± 0.084 |

| Variant | abundance fitness |
| --- | --- |
| E7A | -0.082 ± 0.11 |
| E7F | -0.513 ± 0.12 |
| E7W | -0.014 ± 0.26 |
| E7H | 0.105 ± 0.089 |
| E7S | 0.528 ± 0.083 |
| E7G | 0.381 ± 0.12 |
| E7Q | 0.013 ± 0.14 |
| E7L | -0.163 ± 0.087 |
| E7D | 0.327 ± 0.14 |
| E7V | -0.362 ± 0.12 |
| E7R | -0.093 ± 0.095 |
| E7T | 0.526 ± 0.087 |
| E7K | 0.271 ± 0.15 |
| E7I | -0.357 ± 0.11 |
| S5V | 0.275 ± 0.12 |
| S5A | 0.11 ± 0.13 |
| S5F | -0.155 ± 0.21 |
| S5C | 0.2 ± 0.16 |
| S5I | -0.107 ± 0.2 |
| S5G | 0.27 ± 0.12 |
| S5L | -0.045 ± 0.14 |
| S5H | -0.187 ± 0.37 |

| Variant | abundance fitness |
| --- | --- |
| S5W | -0.162 ± 0.14 |
| S5D | 0.405 ± 0.26 |
| S5M | 0.289 ± 0.22 |
| S5P | -0.158 ± 0.19 |
| S5K | 0.226 ± 0.27 |
| S5Q | 0.268 ± 0.18 |
| S5N | 0.216 ± 0.24 |
| S5T | 0.217 ± 0.15 |
| S5E | 0.565 ± 0.17 |
| R3L | 0.306 ± 0.12 |
| R3C | 0.174 ± 0.14 |
| R3N | 0.033 ± 0.24 |
| R3W | -0.706 ± 0.22 |
| R3T | 0.205 ± 0.14 |
| R3M | 0.011 ± 0.23 |
| R3Q | -0.354 ± 0.21 |
| R3H | -0.277 ± 0.31 |
| R3F | -0.226 ± 0.19 |
| R3Y | 0.069 ± 0.18 |
| R3P | 0.122 ± 0.16 |
| R3S | 0.261 ± 0.12 |
| R3V | -0.15 ± 0.13 |

| Variant | abundance fitness |
| --- | --- |
| R3A | -0.162 ± 0.14 |
| R3I | 0.104 ± 0.17 |
| R3G | 0.077 ± 0.1 |
| R3K | 0.03 ± 0.33 |
| I6Q | -0.123 ± 0.15 |
| I6H | -0.128 ± 0.097 |
| I6C | -0.626 ± 0.13 |
| I6L | 0.018 ± 0.083 |
| I6T | -0.201 ± 0.096 |
| I6Y | -0.613 ± 0.12 |
| I6W | -0.244 ± 0.23 |
| I6P | -0.169 ± 0.091 |
| I6E | -0.303 ± 0.2 |
| I6D | -0.249 ± 0.12 |
| I6G | -0.197 ± 0.12 |
| I6N | -0.249 ± 0.095 |
| I6S | -0.152 ± 0.086 |
| I6V | -0.215 ± 0.093 |
| I6A | -0.437 ± 0.12 |
| I6F | -0.397 ± 0.099 |
| I6R | -0.292 ± 0.12 |
| K2S | -0.161 ± 0.14 |

| Variant | abundance fitness |
| --- | --- |
| K2E | -0.526 ± 0.28 |
| K2A | -0.433 ± 0.21 |
| K2H | -0.258 ± 0.23 |
| K2Q | -0.637 ± 0.25 |
| K2C | -0.8 ± 0.31 |
| K2V | -0.124 ± 0.15 |
| K2Y | -0.159 ± 0.27 |
| K2P | -0.559 ± 0.27 |
| K2M | -0.201 ± 0.24 |
| K2D | -0.342 ± 0.26 |
| K2L | -0.093 ± 0.15 |
| K2N | -0.058 ± 0.35 |
| K2R | -0.225 ± 0.17 |
| K2T | -0.277 ± 0.2 |
| S9H | 0.277 ± 0.45 |
| S9G | 0.172 ± 0.2 |
| S9A | -0.056 ± 0.19 |
| S9E | 0.443 ± 0.27 |
| S9F | -0.348 ± 0.28 |
| S9D | 0.539 ± 0.28 |
| S9C | -0.017 ± 0.27 |

Variants of: B2
Assay: as above
Conditions: Homo sapiens

| Variant | abundance fitness |
| --- | --- |
| M23P | -0.136 ± 0.14 |
| M23H | -0.198 ± 0.1 |
| M23L | -0.462 ± 0.14 |
| M23Q | -0.016 ± 0.15 |
| M23W | -0.283 ± 0.14 |
| M23E | 0.106 ± 0.088 |
| M23V | -0.1 ± 0.089 |
| M23R | -0.075 ± 0.092 |
| M23S | -0.081 ± 0.12 |
| M23T | -0.419 ± 0.15 |
| M23K | -0.057 ± 0.12 |
| M23D | 0.152 ± 0.1 |
| M23G | 0.127 ± 0.079 |
| K34G | 0.266 ± 0.068 |
| K34E | 0.182 ± 0.14 |
| K34C | 0.064 ± 0.14 |
| K34N | 0.06 ± 0.13 |
| K34W | 0.003 ± 0.089 |

| Variant | abundance fitness |
| --- | --- |
| K34D | 0.295 ± 0.15 |
| K34L | 0.121 ± 0.083 |
| K34A | 0.185 ± 0.085 |
| K34I | -0.503 ± 0.41 |
| K34T | 0.057 ± 0.1 |
| K34S | 0.073 ± 0.12 |
| K34V | 0.152 ± 0.078 |
| K34Q | -0.107 ± 0.14 |
| K34P | 0.161 ± 0.21 |
| S26C | -0.98 ± 0.2 |
| S26A | 0.05 ± 0.077 |
| S26E | 0.228 ± 0.11 |
| S26L | -0.559 ± 0.16 |
| S26N | -0.079 ± 0.26 |
| S26W | -1.91 ± 0.23 |
| S26F | -0.651 ± 0.2 |
| S26G | 0.089 ± 0.073 |
| S26K | 0.032 ± 0.11 |
